Assay results reported in US20050170502A1, “Methods for maintaining hepatocytes in culture and for differentiating embryonic stem cells along a hepatocyte lineage” (REGENTS OF THE UNIVERSITY OF CALIFORNIA, priority 2003, published 2005).

Tested on: mouse ES cells (ES-D3)
Test: Hepatocyte-specific gene expression in differentiated mouse ES cells, real-time quantitative RT-PCR
Conditions: mouse ES cells, IMDM, collagen type I, day 33, FIG. 2A
Procedure: Mouse ES cell line ES-D3 and mouse STO fibroblasts were obtained from the American Type Culture Collection, Manassas, Va. ES cells were expanded on STO fibroblast feeder layers in Dulbecco's modified Eagle's medium (DMEM) (unless specified, cell culture supplies were from Invitrogen, Carlsbad, Calif.) containing 15% fetal bovine serum (FBS), 1 mM L-glutamine, 60 μM non-essential amino acid solution, 0.1 mM 2-mercaptoethanol, 10 mM HEPES (Sigma-Aldrich, Saint Louis, Mo.), 1400 U/ml leukemia inhibitory factor (LIF) (Chemicon International, Temecula, Calif.), and penicillin/streptomycin at standard concentrations. To prepare feeder layers, STO fibroblasts were cultured until confluent and treated with 10 μg/ml mitomycin C (Sigma-Aldrich) for 4 hours. […]
Total RNA was extracted with RNeasy Mini Kit (Qiagen, Valencia, Calif.). Real time quantitative RT-PCR was employed for the determination of gene expression as described in detail previously by our group (Wege, H. et al., Gastroenterology 124:432-444 (2003)). […] Relative mouse or human gene expression analysis (ΔΔCT) was performed by real-time quantitative PCR with the ABI Prism 7700 Sequence Detection System and SYBR PCR Green Master Mix or TaqMan PCR Master Mix (Applied Biosystems, Foster City, Calif.). […] Normalized expression of hepatocyte-specific genes was compared to levels detected in primary adult mouse or human hepatocytes.

B1: OnM: oncostatin M (protein, UniProt P13725 26-221, looked up)
Oncostatin-M: AAIGSCSKEYRVLLGQLQKQTDLMQDTSRLLDPYIRIQGLDVPKLREHCRERPGAFPSEETLRGLGRRGFLQTLNATLGCVLHRLADLEQRLPKAQDLERSGLNIEDLEKLQMARPNILGLRNNIYCMAQLLDNSDTAEPTKAGRGASQPPTPTPASDAFQRKLEGCRFLHGYHRFMHSVGRVFSKWGESPNRSRR
- albumin gene expression (effect of individual growth and differentiation factors): only minor positive or even negative effects
